Test results: patent US20170343560A1

Experiments:
[1] = biological target: human Fcgamma receptor I (human) (UniProt P12314); test: SPR BIAcore T100, Bi-huFcyRI on SA-CAP chip, antibody 10 ug/mL injected 60 s, reference-subtracted response after injection
[2] = biological target: bispecific effector function silent anti-ANG2/VEGF antibody; test: bridging ELISA (Ex. 2), ANG2 bridges Bi-drug and Dig-drug; ANG2 25 ng/mL in cynomolgus pool plasma; cut off 0.05
[3] = biological target: bispecific effector function silent anti-ANG2/VEGF antibody; test: bridging ELISA (Ex. 2), ANG2 bridges Bi-drug and Dig-drug; ANG2 50 ng/mL in cynomolgus pool plasma; cut off 0.05
[4] = biological target: bispecific effector function silent anti-ANG2/VEGF antibody; test: bridging ELISA (Ex. 2), ANG2 bridges Bi-drug and Dig-drug; ANG2 100 ng/mL in cynomolgus pool plasma; cut off 0.05
[5] = biological target: bispecific effector function silent anti-ANG2/VEGF antibody; test: bridging ELISA (Ex. 2), ANG2 bridges Bi-drug and Dig-drug; ANG2 1.56 ng/mL in cynomolgus pool plasma; cut off 0.05
[6] = biological target: bispecific effector function silent anti-ANG2/VEGF antibody; test: bridging ELISA (Ex. 2), ANG2 bridges Bi-drug and Dig-drug; ANG2 12.5 ng/mL in cynomolgus pool plasma; cut off 0.05
[7] = biological target: bispecific effector function silent anti-ANG2/VEGF antibody; test: bridging ELISA (Ex. 2), ANG2 bridges Bi-drug and Dig-drug; ANG2 3.13 ng/mL in cynomolgus pool plasma; cut off 0.05
[8] = biological target: bispecific effector function silent anti-ANG2/VEGF antibody; test: bridging ELISA (Ex. 2), ANG2 bridges Bi-drug and Dig-drug; ANG2 6.25 ng/mL in cynomolgus pool plasma; cut off 0.05
[9] = biological target: bispecific effector function silent anti-ANG2/VEGF antibody; test: bridging ELISA (Ex. 2), ANG2 bridges Bi-drug and Dig-drug; ANG2 0.195 ng/mL in cynomolgus pool plasma; cut off 0.05
[10] = biological target: bispecific effector function silent anti-ANG2/VEGF antibody; test: bridging ELISA (Ex. 2), ANG2 bridges Bi-drug and Dig-drug; ANG2 0.391 ng/mL in cynomolgus pool plasma; cut off 0.05
[11] = biological target: bispecific effector function silent anti-ANG2/VEGF antibody; test: bridging ELISA (Ex. 2), ANG2 bridges Bi-drug and Dig-drug; ANG2 0.781 ng/mL in cynomolgus pool plasma; cut off 0.05
[12] = biological target: bispecific effector function silent anti-ANG2/VEGF antibody; test: bridging ELISA (Ex. 2), ANG2 bridges Bi-drug and Dig-drug; ANG2 0.0489 ng/mL in cynomolgus pool plasma; cut off 0.05
[13] = biological target: bispecific effector function silent anti-ANG2/VEGF antibody; test: bridging ELISA (Ex. 2), ANG2 bridges Bi-drug and Dig-drug; ANG2 0.0977 ng/mL in cynomolgus pool plasma; cut off 0.05
[14] = biological target: bispecific effector function silent anti-ANG2/VEGF antibody; test: bridging ELISA (Ex. 2), VEGF bridges Bi-drug and Dig-drug; VEGF 25 ng/mL in cynomolgus pool plasma
[15] = biological target: bispecific effector function silent anti-ANG2/VEGF antibody; test: bridging ELISA (Ex. 2), VEGF bridges Bi-drug and Dig-drug; VEGF 50 ng/mL in cynomolgus pool plasma
[16] = biological target: bispecific effector function silent anti-ANG2/VEGF antibody; test: bridging ELISA (Ex. 2), VEGF bridges Bi-drug and Dig-drug; VEGF 100 ng/mL in cynomolgus pool plasma
[17] = biological target: bispecific effector function silent anti-ANG2/VEGF antibody; test: bridging ELISA (Ex. 2), VEGF bridges Bi-drug and Dig-drug; VEGF 1.56 ng/mL in cynomolgus pool plasma
[18] = biological target: bispecific effector function silent anti-ANG2/VEGF antibody; test: bridging ELISA (Ex. 2), VEGF bridges Bi-drug and Dig-drug; VEGF 12.5 ng/mL in cynomolgus pool plasma
[19] = biological target: bispecific effector function silent anti-ANG2/VEGF antibody; test: bridging ELISA (Ex. 2), VEGF bridges Bi-drug and Dig-drug; VEGF 3.13 ng/mL in cynomolgus pool plasma
[20] = biological target: bispecific effector function silent anti-ANG2/VEGF antibody; test: bridging ELISA (Ex. 2), VEGF bridges Bi-drug and Dig-drug; VEGF 6.25 ng/mL in cynomolgus pool plasma
[21] = biological target: bispecific effector function silent anti-ANG2/VEGF antibody; test: bridging ELISA (Ex. 2), VEGF bridges Bi-drug and Dig-drug; VEGF 0.391 ng/mL in cynomolgus pool plasma
[22] = biological target: bispecific effector function silent anti-ANG2/VEGF antibody; test: bridging ELISA (Ex. 2), VEGF bridges Bi-drug and Dig-drug; VEGF 0.781 ng/mL in cynomolgus pool plasma
[23] = biological target: bispecific effector function silent anti-ANG2/VEGF antibody; test: bridging ELISA (Ex. 2), VEGF bridges Bi-drug and Dig-drug; VEGF 0.195 ng/mL in cynomolgus pool plasma; cut off 0.05
[24] = biological target: bispecific effector function silent anti-ANG2/VEGF antibody; test: bridging ELISA (Ex. 2), VEGF bridges Bi-drug and Dig-drug; VEGF 0.0489 ng/mL in cynomolgus pool plasma; cut off 0.05

VEGF, sequence (P15692 other isoform, or with tags, fused parts or gaps limits assumed): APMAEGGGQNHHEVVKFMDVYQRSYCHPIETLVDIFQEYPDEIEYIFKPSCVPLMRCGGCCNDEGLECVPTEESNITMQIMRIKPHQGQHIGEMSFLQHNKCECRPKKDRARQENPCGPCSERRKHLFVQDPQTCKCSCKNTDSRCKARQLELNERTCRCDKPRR
UniProt P12314, sequence (P12314 16-288 limits assumed): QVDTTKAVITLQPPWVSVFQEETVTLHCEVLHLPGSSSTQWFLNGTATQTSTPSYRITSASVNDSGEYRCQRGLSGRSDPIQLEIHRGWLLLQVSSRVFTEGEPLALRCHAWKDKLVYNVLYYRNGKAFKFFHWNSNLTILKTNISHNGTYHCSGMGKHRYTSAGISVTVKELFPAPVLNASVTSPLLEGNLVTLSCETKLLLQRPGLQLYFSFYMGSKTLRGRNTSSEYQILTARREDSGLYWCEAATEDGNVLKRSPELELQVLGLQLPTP
ANG2, sequence (O15123 19-496 limits assumed): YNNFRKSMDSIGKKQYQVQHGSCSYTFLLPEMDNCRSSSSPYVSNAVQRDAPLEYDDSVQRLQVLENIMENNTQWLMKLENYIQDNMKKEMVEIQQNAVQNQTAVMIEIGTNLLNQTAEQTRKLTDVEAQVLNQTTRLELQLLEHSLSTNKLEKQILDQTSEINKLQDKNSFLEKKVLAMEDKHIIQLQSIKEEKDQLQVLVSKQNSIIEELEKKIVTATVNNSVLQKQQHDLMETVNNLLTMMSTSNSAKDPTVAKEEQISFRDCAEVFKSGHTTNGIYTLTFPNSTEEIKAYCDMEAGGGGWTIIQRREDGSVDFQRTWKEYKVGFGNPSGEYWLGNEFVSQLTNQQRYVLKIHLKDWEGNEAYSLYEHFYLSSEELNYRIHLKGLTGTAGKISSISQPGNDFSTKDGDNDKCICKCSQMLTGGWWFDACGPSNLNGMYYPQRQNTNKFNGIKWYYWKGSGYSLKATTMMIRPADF

“human IgG1 P329G L234A L235A I253A H310A H434A mutations (antibody)” showed a signal (RU) [1] of 1.8 RU.
With human IgG1 (antibody) the signal (RU) [1] was 139 RU.
With “ANG2 (from UniProt O15123 19-496) (ligand)” the OD 405 nm [2] was 0.052 OD 405 nm, the OD 405 nm [3] was 0.076 OD 405 nm and the OD 405 nm [4] was 0.14 OD 405 nm. The OD 405 nm [5] was 0.024 OD 405 nm, the OD 405 nm [6] was 0.038 OD 405 nm and the OD 405 nm [7] was 0.028 OD 405 nm. For the same substance, the OD 405 nm [8] was 0.031 OD 405 nm, the OD 405 nm [9] was 0.024 OD 405 nm and the OD 405 nm [10] was 0.022 OD 405 nm. For the same substance, the OD 405 nm [11] was 0.024 OD 405 nm, the OD 405 nm [12] was 0.022 OD 405 nm and the OD 405 nm [13] was 0.022 OD 405 nm.
human IgG4 (antibody) showed a signal (RU) [1] of 20.2 RU.
Substance “human IgM (from UniProt P01871 1-453) (antibody)” has a signal (RU) [1] of 5.2 RU.
Substance mouse IgG1 (antibody) has a signal (RU) [1] of 3 RU.
“VEGF (from UniProt P15692 27-191) (ligand)” gave an OD 405 nm [14] of 1.69 OD 405 nm, an OD 405 nm [15] of 2.34 OD 405 nm and an OD 405 nm [16] of 2.83 OD 405 nm. For the same substance, the OD 405 nm [17] was 0.138 OD 405 nm, the OD 405 nm [18] was 0.921 OD 405 nm and the OD 405 nm [19] was 0.274 OD 405 nm. For the same substance, the OD 405 nm [20] was 0.51 OD 405 nm, the OD 405 nm [21] was 0.058 OD 405 nm and the OD 405 nm [22] was 0.083 OD 405 nm. The OD 405 nm [23] was 0.039 OD 405 nm and the OD 405 nm [24] was 0.025 OD 405 nm.
“human IgG4 with S228P L235E mutations (antibody)” gave a signal (RU) [1] of 2.6 RU.
“human IgG1 with L234A L235A mutations (antibody)” was tested, and the signal (RU) [1] was 4 RU.
Substance “human IgG1 with P329G L243A L235A mutations (antibody)” has a signal (RU) [1] of 1.5 RU.
Substance mouse IgG2a (antibody) has a signal (RU) [1] of 31.1 RU.
